Measurements reported in patent US20220090005A1, “Supplemented Serum-Containing Culture Medium for Enhanced Arpe-19 Growth and Human Cytomegalovirus Vaccine Production” (priority 2019, published 2022).

Test system: ARPE-19 cells
Assay: Screening of individual supplements on ARPE-19 cell growth, 96-well plate, Hoechst nuclear stain
Assay type: cell-based, human
Conditions: components with p-value of <0.05; DMEM/F12 2% FBS, days 2-8 post plant, FIG. 1

B1: EGF: Epidermal Growth Factor, growth factor supplement (protein, UniProt P01133 23-1207, looked up)
Pro-epidermal growth factor: PQHWSCPEGTLAGNGNSTCVGPAPFLIFSHGNSIFRIDTEGTNYEQLVVDAGVSVIMDFHYNEKRIYWVDLERQLLQRVFLNGSRQERVCNIEKNVSGMAINWINEEVIWSNQQEGIITVTDMKGNNSHILLSALKYPANVAVDPVERFIFWSSEVAGSLYRADLDGVGVKALLETSEKITAVSLDVLDKRLFWIQYNREGSNSLICSCDYDGGSVHISKHPTQHNLFAMSLFGDRIFYSTWKMKTIWIANKHTGKDMVRINLHSSFVPLGELKVVHPLAQPKAEDDTWEPEQKLCKLRKGNCSSTVCGQDLQSHLCMCAEGYALSRDRKYCEDVNECAFWNHGCTLGCKNTPGSYYCTCPVGFVLLPDGKRCHQLVSCPRNVSECSHDCVLTSEGPLCFCPEGSVLERDGKTCSGCSSPDNGGCSQLCVPLSPVSWECDCFPGYDLQLDEKSCAASGPQPFLLFANSQDIRHMHFDGTDYGTLLSQQMGMVYALDHDPVENKIYFAHTALKWIERANMDGSQRERLIEEGVDVPEGLAVDWIGRRFYWTDRGKSLIGRSDLNGKRSKIITKENISQPRGIAVHPMAKRLFWTDTGINPRIESSSLQGLGRLVIASSDLIWPSGITIDFLTDKLYWCDAKQSVIEMANLDGSKRRRLTQNDVGHPFAVAVFEDYVWFSDWAMPSVMRVNKRTGKDRVRLQGSMLKPSSLVVVHPLAKPGADPCLYQNGGCEHICKKRLGTAWCSCREGFMKASDGKTCLALDGHQLLAGGEVDLKNQVTPLDILSKTRVSEDNITESQHMLVAEIMVSDQDDCAPVGCSMYARCISEGEDATCQCLKGFAGDGKLCSDIDECEMGVPVCPPASSKCINTEGGYVCRCSEGYQGDGIHCLDIDECQLGEHSCGENASCTNTEGGYTCMCAGRLSEPGLICPDSTPPPHLREDDHHYSVRNSDSECPLSHDGYCLHDGVCMYIEALDKYACNCVVGYIGERCQYRDLKWWELRHAGHGQQQKVIVVAVCVVVLVMLLLLSLWGAHYYRTQKLLSKNPKNPYEESSRDVRSRRPADTEDGMSSCPQPWFVVIKEHQDLKNGGQPVAGEDGQAADGSMQPTSWRQEPQLCGMGTEQGCWIPVSSDKGSCPQVMERSFHMPSYGTQTLEGGVEKPHSLLSANPLWQQRALDPPHQMELTQ
modifications: Pro-epidermal growth factor
notes: Epidermal Growth Factor, growth factor supplement
  effect on cell growth: positive effect on cell growth
